Consider five molecules from patent US20170101472A1 (Regeneron, published 2017).

Assay [1] concerns the target T1, monkey LAG3 (mfLAG3) expressed on HEK293 cells (cynomolgus monkey, UniProt P18627 24-525 (human entry)).
T1 construct: also called HEK293/mfLAG3; HEK293-mfLAG3
T1 chain: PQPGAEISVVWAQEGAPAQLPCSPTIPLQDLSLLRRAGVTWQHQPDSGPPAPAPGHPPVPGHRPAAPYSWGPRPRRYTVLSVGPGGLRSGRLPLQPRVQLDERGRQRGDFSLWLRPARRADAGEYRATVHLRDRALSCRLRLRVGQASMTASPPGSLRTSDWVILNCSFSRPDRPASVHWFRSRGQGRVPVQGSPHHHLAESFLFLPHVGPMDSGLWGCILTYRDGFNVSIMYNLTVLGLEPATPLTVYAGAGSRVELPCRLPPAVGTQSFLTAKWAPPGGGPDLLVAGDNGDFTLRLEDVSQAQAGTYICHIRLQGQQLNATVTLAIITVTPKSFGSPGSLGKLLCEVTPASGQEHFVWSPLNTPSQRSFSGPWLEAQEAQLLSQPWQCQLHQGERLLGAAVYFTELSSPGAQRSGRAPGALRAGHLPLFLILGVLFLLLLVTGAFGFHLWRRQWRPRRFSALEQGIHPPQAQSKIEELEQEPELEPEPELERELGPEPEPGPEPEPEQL
The assay can be described thus: flow cytometry, HEK293/mfLAG3 cells; FACS on HEK293/mfLAG3 cells; MFI ratio 100 nM/0 nM. The method, then:
(§1) The serially diluted antibodies were added to the cell suspension and incubated for 15-30 minutes on ice. The cells were centrifuged and pellets were washed with staining buffer to remove unbound antibodies. […] The cells were centrifuged and pellets were washed with staining buffer to remove unbound secondary F(ab′)2 and fixed overnight with a 1:1 dilution of Cytofix (BD Biosciences, #554655) and staining buffer. Following day, fixed cells were centrifuged and pellets were washed with staining buffer, resuspended and filtered. Fluorescence measurements were acquired on HyperCyt® cytometer and analyzed in ForeCyt™ (IntelliCyt; Albuquerque, N. Mex.) to determine the mean fluorescence intensities (MFI). The EC₅₀ values were calculated from a four-parameter logistic equation over an 11-point response curve using GraphPad Prism. EC₅₀ was defined as the concentration of antibody at which 50% of maximal binding signal is detected. The MFI ratio for each antibody was calculated by dividing the MFI at 100 nM by MFI at 0 nM of antibody concentration.
On the technique in general: Flow cytometry measures light scatter and fluorescence of single cells or particles in a stream.

The target in assay [2] is T1, monkey LAG3 (mfLAG3) expressed on …. The assay can be described thus: flow cytometry, HEK293/mfLAG3 cells; FACS on HEK293/mfLAG3 cells. The protocol:
as §1

Assay [3] has as its target T2, cynomolgus LAG3 on activated CD4+ and CD8+ cynomolgus T cells (cynomolgus).
T2 chain: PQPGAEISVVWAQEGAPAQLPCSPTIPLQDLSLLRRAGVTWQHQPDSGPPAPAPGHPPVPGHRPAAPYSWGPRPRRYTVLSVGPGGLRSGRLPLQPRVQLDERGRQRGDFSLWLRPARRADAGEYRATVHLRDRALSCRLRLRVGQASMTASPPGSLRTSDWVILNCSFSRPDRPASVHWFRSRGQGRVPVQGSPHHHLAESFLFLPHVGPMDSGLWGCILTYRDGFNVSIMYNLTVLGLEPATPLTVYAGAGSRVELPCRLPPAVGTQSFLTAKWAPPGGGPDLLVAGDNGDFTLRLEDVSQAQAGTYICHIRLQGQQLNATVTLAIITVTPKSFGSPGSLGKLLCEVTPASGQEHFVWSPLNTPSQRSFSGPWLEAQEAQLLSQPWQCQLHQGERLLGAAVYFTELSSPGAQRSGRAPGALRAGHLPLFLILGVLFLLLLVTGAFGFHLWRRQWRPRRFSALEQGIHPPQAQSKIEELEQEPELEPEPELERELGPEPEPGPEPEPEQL
The assay can be described thus: FACS, stimulated cynomolgus CD8+ T cells, donor 2. The method, then:
(§2) Next, stimulated cynomolgus T-cells from each donor, as described above, were stained with LIVE/DEAD dye (Molecular Probes) to distinguish between live and dead cells via FACS. Subsequently, cells were co-incubated with PE-conjugated anti-CD8 and FITC-conjugated anti-CD4 for 15 min on ice to enable the detection of CD4 and CD8 positive and negative cell populations.
(§3) Next, the serially diluted antibodies were directly labeled using Zenon Alexa-Fluor 647 (Molecular Probes) and incubated with the cynomolgus CD4+/CD8+ T-cell suspension for 15-30 min on ice. Cells were centrifuged and pellets washed with staining buffer to remove unbound antibodies and fixed for 12 h with a 1:1 dilution of Cytofix (BD Biosciences) and staining buffer. Following the incubation period, fixation buffer was removed and pellets were resuspended in staining buffer, filtered, and used for fluorescence measurements.
(§4) Fluorescence measurements were acquired on the Fortessa (Becton Dickinson) and data analyzed in FlowJo to determine the mean fluorescence intensities (MFI). EC₅₀ values were calculated from a four-parameter logistic equation over an 11-point response curve using GraphPad Prism.

The target in assay [4] is T2, cynomolgus LAG3 on activated CD4+ and …. The assay can be described thus: FACS, stimulated cynomolgus CD4+ T cells, donor 1. The method, then:
as §2, §3, §4

For assay [5] the target is unchanged. The assay can be described thus: FACS, stimulated cynomolgus CD8+ T cells, donor 1. The method, then: as §2, §3, §4
Assay [6] shares this target. The assay can be described thus: FACS, stimulated cynomolgus CD4+ T cells, donor 2. The method, then: as §2, §3, §4

B1: H4sH15479P (antibody, V domains shown)
VH: QVQLQQWGAGLLNPSETLSLTCAVYGGAFSDYYWNWIRQPPGKGLEWIGEINHRGSTNYNPSLKSRVTISVDTSKNQFSLRMSSVTAADAAVYYCARGEDYDIWNGYYQEKWGQGTLVTVSS
VL: EIVLTQSPATLSLSPGERATLSCRASQSISTYLAWYQQKPGQAPRLLIYDASKRATGIPARFSGSGSGTDFTLTISSLEPEDFVVYYCHQRSNWPLTFGGGTKVEIK
For the molecule B1, the “Ratio of MFI (100 nM/0 nM)” value in assay [1] was 20.7. In addition, a half-maximal response in assay [2] (EC50) required 0.902 nM.

B2: H4sH15482P (antibody, human IgG4 S228P, kappa)
heavy: QVQLVESGGGVVQPGRSLRLSCVASGFTFSSYGMHWVRQAPGKGLEWVAIIWYDGSNKYYADSVKGRFTISRDNSKNTQYLQMNSLRAEDTAVYYCASVATSGDFDYYGMDVWGQGTTVTVSSASTKGPSVFPLAPCSRSTSESTAALGCLVKDYFPEPVTVSWNSGALTSGVHTFPAVLQSSGLYSLSSVVTVPSSSLGTKTYTCNVDHKPSNTKVDKRVESKYGPPCPPCPAPPVAGPSVFLFPPKPKDTLMISRTPEVTCVVVDVSQEDPEVQFNWYVDGVEVHNAKTKPREEQFNSTYRVVSVLTVLHQDWLNGKEYKCKVSNKGLPSSIEKTISKAKGQPREPQVYTLPPSQEEMTKNQVSLTCLVKGFYPSDIAVEWESNGQPENNYKTTPPVLDSDGSFFLYSRLTVDKSRWQEGNVFSCSVMHEALHNHYTQKSLSLSLGK
light: EIVLTQSPATLSLSPGERTTLSCRASQRISTYLAWYQQKPGQAPRLLIYDASKRATGIPARFSGSGSGTGFTLTISSLEPEDFAVYYCQQRSNWPLTFGGGTKVEIKRTVAAPSVFIFPPSDEQLKSGTASVVCLLNNFYPREAKVQWKVDNALQSGNSQESVTEQDSKDSTYSLSSTLTLSKADYEKHKVYACEVTHQGLSSPVTKSFNRGEC
notes: H4sH = modified human IgG4 Fc; also called mAb1
Consider B2, for which the concentration giving a half-maximal response (EC50) (as a rule, the midpoint of the concentration-response curve) in assay [3] was found to be 0.41 nM; in assay [4], 1.2 nM; in assay [5], 0.46 nM; in assay [6] it was 0.38 nM; in assay [2], 1.15 nM.

B3: H4H15482P (antibody, human IgG4 S228P, kappa)
heavy: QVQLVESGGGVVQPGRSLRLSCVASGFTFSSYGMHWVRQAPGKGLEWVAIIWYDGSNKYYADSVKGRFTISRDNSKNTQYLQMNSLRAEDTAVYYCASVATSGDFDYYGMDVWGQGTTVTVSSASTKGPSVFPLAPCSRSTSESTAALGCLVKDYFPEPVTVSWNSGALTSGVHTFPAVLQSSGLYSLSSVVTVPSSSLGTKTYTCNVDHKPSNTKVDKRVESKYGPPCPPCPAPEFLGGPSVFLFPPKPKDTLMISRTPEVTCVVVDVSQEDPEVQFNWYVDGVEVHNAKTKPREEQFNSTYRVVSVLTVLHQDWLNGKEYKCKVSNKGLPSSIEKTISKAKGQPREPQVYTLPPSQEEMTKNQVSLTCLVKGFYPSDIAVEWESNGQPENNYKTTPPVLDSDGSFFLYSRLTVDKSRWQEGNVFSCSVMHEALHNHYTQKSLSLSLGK
light: EIVLTQSPATLSLSPGERTTLSCRASQRISTYLAWYQQKPGQAPRLLIYDASKRATGIPARFSGSGSGTGFTLTISSLEPEDFAVYYCQQRSNWPLTFGGGTKVEIKRTVAAPSVFIFPPSDEQLKSGTASVVCLLNNFYPREAKVQWKVDNALQSGNSQESVTEQDSKDSTYSLSSTLTLSKADYEKHKVYACEVTHQGLSSPVTKSFNRGEC
notes: H4H = human IgG4 Fc with S108P
As to B3, the midpoint of the response in assay [2], the EC50, lay at 2.2 nM.

B4: H4sH14813N (antibody, human IgG4 S228P, kappa, V domains shown)
VH: QVQLQQWGAGLLKPSETLSLTCAVYGGSFSGYYWNWIRQPPGKGLEWVGEISHRGSTNYNPSLKSRVTISLDTSKNQFSLKLTSVTAADTAVYYCSRDEELEFRFFDYWGQGTLVTVSS
VL: EIVLTQSPATLSLSPGERATLSCRASQSVSSYLAWYQQKPGQAPRLLVYGASNRATGIPARFSGSGSGTDFTLTISSLEPEDFAFYYCQQRSNWPLTFGGGTKVEIKR
notes: H4sH = modified human IgG4 Fc
As to B4, the EC50 in assay [3] worked out at 0.11 nM; in assay [4], 0.42 nM; in assay [5] it was 0.085 nM; in assay [6] it was 0.22 nM; in assay [2] it was 1.57 nM. The “Ratio of MFI (11 nM/0 nM)” value in assay [3] was 6.3; in assay [4] it was 1.3; in assay [5] it was 3.5; in assay [6], 1.5. The “Ratio of MFI (100 nM/0 nM)” value in assay [1] turned out to be 16.7.

B5: H4H14813N (antibody, human IgG4, V domains shown)
VH: QVQLQQWGAGLLKPSETLSLTCAVYGGSFSGYYWNWIRQPPGKGLEWVGEISHRGSTNYNPSLKSRVTISLDTSKNQFSLKLTSVTAADTAVYYCSRDEELEFRFFDYWGQGTLVTVSS
VL: EIVLTQSPATLSLSPGERATLSCRASQSVSSYLAWYQQKPGQAPRLLVYGASNRATGIPARFSGSGSGTDFTLTISSLEPEDFAFYYCQQRSNWPLTFGGGTKVEIK
notes: H4H = human IgG4 Fc with S108P hinge mutation
In the case of B5, the “Ratio of MFI (100 nM/0 nM)” value in assay [1] was 17.1. This molecule returned an EC50 in assay [2] of 1.42 nM.
